Test results from the supplement of paper PMC10567573.

B1: CDC25B (parent)
chain: KSPIAPCSLDKRVILIFHCEFSSE

Variants of: B1
Assay: protein stability index of a GFP-peptide fusion (GPS, HEK-293T) (PSI 1-6); higher = more stable
Conditions: c terminus: a fixed tail appended
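Note: lentivirally expressed fusions sorted by FACS into six bins by GFP to DsRed ratio, PSI derived from sequencing read proportions per bin multiplied by bin number.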

Variant	protein stability index
KSPHAPCSLDKRVILIFHCEFSSE [I4H]	1.94
KSPDAPCSLDKRVILIFHCEFSSE [I4D]	1.16
KSPGAPCSLDKRVILIFHCEFSSE [I4G]	4.68
KSPNAPCSLDKRVILIFHCEFSSE [I4N]	2.64
KSPWAPCSLDKRVILIFHCEFSSE [I4W]	2.72
KSPYAPCSLDKRVILIFHCEFSSE [I4Y]	3.53
KSPIAPCFLDKRVILIFHCEFSSE [S8F]	2.12
KSPIAPCGLDKRVILIFHCEFSSE [S8G]	3.16
KSPIAPCCLDKRVILIFHCEFSSE [S8C]	3
KSPIAPCALDKRVILIFHCEFSSE [S8A]	3.52
KSPIAPCILDKRVILIFHCEFSSE [S8I]	2.17
KSPIAPCDLDKRVILIFHCEFSSE [S8D]	2.31
KSPIAPCWLDKRVILIFHCEFSSE [S8W]	1.81
KSPIAPCLLDKRVILIFHCEFSSE [S8L]	1
KSPIAPCMLDKRVILIFHCEFSSE [S8M]	2.28
KSPIAPCVLDKRVILIFHCEFSSE [S8V]	2.5
KSPIAPCTLDKRVILIFHCEFSSE [S8T]	4.2
KSPIAPCHLDKRVILIFHCEFSSE [S8H]	3.03
KSPIAPCSLDKRVILIFHCEFSST [E24T]	2.44
KSPIAPCSLDKRVILIFHCEFSSG [E24G]	2.09
KSPIAPCSLDKRVILIFHCEFSSL [E24L]	1.98
KSPIAPCSLDKRVILIFHCEFSSV [E24V]	2.98
KSPIAPCSLDKRVILIFHCEFSSY [E24Y]	2.39
KSPIAPCSLDKRVILIFHCEFSSQ [E24Q]	2.38

Variant	protein stability index
KSPIAPCSRDKRVILIFHCEFSSE [L9R]	3.58
KSPIAPCSTDKRVILIFHCEFSSE [L9T]	2.22
KSPIAPCSWDKRVILIFHCEFSSE [L9W]	2.9
KSPIAPCSMDKRVILIFHCEFSSE [L9M]	2.53
KSPIAPCSVDKRVILIFHCEFSSE [L9V]	2.37
KSPIAPCSGDKRVILIFHCEFSSE [L9G]	2.92
KSPIAPCSKDKRVILIFHCEFSSE [L9K]	2.39
KSPIAPCSADKRVILIFHCEFSSE [L9A]	2.62
KSPIAPCSDDKRVILIFHCEFSSE [L9D]	2.66
KSPIAPCSQDKRVILIFHCEFSSE [L9Q]	2.42
KSPIAPCSLDKFVILIFHCEFSSE [R12F]	5.41
KSPIAPCSLDKPVILIFHCEFSSE [R12P]	2.66
KSPIAPCSLDKGVILIFHCEFSSE [R12G]	2.23
KSPIAPCSLDKDVILIFHCEFSSE [R12D]	3.43
KSPIAPCSLDKNVILIFHCEFSSE [R12N]	2.76
KSPIAPCSLDKSVILIFHCEFSSE [R12S]	4.14
KSPIAPCSLDKMVILIFHCEFSSE [R12M]	2.89
KSPIAPCSLDKRVILIFHCEDSSE [F21D]	1.51
KSPIAPCSLDKRVILIFHCEISSE [F21I]	2.1
KSPIAPCSLDKRVILIFHCESSSE [F21S]	2.69
KSPIAPCSLDKRVILIFHCEMSSE [F21M]	3.21
KSPIAPCSLDKRVILIFHCEKSSE [F21K]	1.5
KSPIAPCSLDKRVILIFHCEASSE [F21A]	2.32
KSPIAPCSLDKRVILIFHCENSSE [F21N]	1.88

Variant	protein stability index
KSPIYPCSLDKRVILIFHCEFSSE [A5Y]	3
KSPIWPCSLDKRVILIFHCEFSSE [A5W]	2.46
KSPIEPCSLDKRVILIFHCEFSSE [A5E]	2.55
KSPISPCSLDKRVILIFHCEFSSE [A5S]	2.48
KSPIFPCSLDKRVILIFHCEFSSE [A5F]	2.93
KSPIDPCSLDKRVILIFHCEFSSE [A5D]	2.57
SSPIAPCSLDKRVILIFHCEFSSE [K1S]	3.48
PSPIAPCSLDKRVILIFHCEFSSE [K1P]	3.88
NSPIAPCSLDKRVILIFHCEFSSE [K1N]	1.96
FSPIAPCSLDKRVILIFHCEFSSE [K1F]	2.7
KSPIAPCSLDKRVIDIFHCEFSSE [L15D]	2.38
KSPIAPCSLDKRVITIFHCEFSSE [L15T]	1.8
KSPIAPCSLDKRVIMIFHCEFSSE [L15M]	2.88
KSPIAPCSLDKRVIKIFHCEFSSE [L15K]	1.42
KSPIAPCSLDKRVIAIFHCEFSSE [L15A]	2.68
KSPIAPCSLDKRVIGIFHCEFSSE [L15G]	1.39
KSPIAPCSLDKRVIRIFHCEFSSE [L15R]	1.71
KSPIAPCSLDKRVIIIFHCEFSSE [L15I]	3.49
KSPIAPCSLDKRVIHIFHCEFSSE [L15H]	1.05
KSPIAPCSLDKRVIEIFHCEFSSE [L15E]	1.83
KSPIAPCSLDKRFILIFHCEFSSE [V13F]	2.29
KSPIAPCSLDKRAILIFHCEFSSE [V13A]	3.2
KSPIAPCSLDKRYILIFHCEFSSE [V13Y]	2.97
KSPIAPCSLDKRNILIFHCEFSSE [V13N]	1.61

Variant	protein stability index
KSPIAPCSLDKREILIFHCEFSSE [V13E]	1.45
KSPIAPCSLDKRWILIFHCEFSSE [V13W]	4.17
KSPIAPCSLDKRQILIFHCEFSSE [V13Q]	1.42
KSPIAPCSLDKRRILIFHCEFSSE [V13R]	3.12
KSPIAPCSLDKRHILIFHCEFSSE [V13H]	1.85
KSPIAPCSLDKRTILIFHCEFSSE [V13T]	2.89
KSPIAPCSLDKRKILIFHCEFSSE [V13K]	1.32
KSPIAPCSLDKRLILIFHCEFSSE [V13L]	2.5
KSPIAPCSLDKRDILIFHCEFSSE [V13D]	2.51
KSPIAPCSLDKRPILIFHCEFSSE [V13P]	1.49
KSPIAPCSLDKRVILIFHCEFSWE [S23W]	3.34
KSPIAPCSLDKRVILIFHCEFSQE [S23Q]	2.79
KSPIAPCSLDKRVILIFHCEFSTE [S23T]	2.89
KSPIAPCSLDKRVILIFHCEFSNE [S23N]	2.25
KSPIAPCSLDKRVILIFHCEFSCE [S23C]	1.23
KSPIAPCSLDKRVILIFHCEFSLE [S23L]	2.04
KSPIAPCSLDKRVILIFHCEFSAE [S23A]	4.14
KSPIAPCSLDKRVILIFHCEFSVE [S23V]	2.95
KSPIAPGSLDKRVILIFHCEFSSE [C7G]	2.4
KSPIAPQSLDKRVILIFHCEFSSE [C7Q]	2.01
KSPIAPKSLDKRVILIFHCEFSSE [C7K]	2.56
KSPIAPRSLDKRVILIFHCEFSSE [C7R]	3.39
